Results reported in patent publication US8785384B2, “Peptide synthesis” (Chemical & Biopharmaceutical Laboratories of Patras, priority 2010, dated 2014).
Where no end group is shown, it is not given here. [ ]: non-standard residue; d: D form. Met(O) = CS(=O)CC[C@H](N)C(=O)O

Columns and labels:
[1] = background statement on earlier attempts at synthetic human relaxins; cited from earlier work
[2] = Solubility of relaxin B-chains (methionine sulphoxide vs non-oxidised); assay type: physicochemical, human; settings: compared with RLX1B and RLX2B respectively / non-oxidised analogue

In the case of “RLX1B: Chain B of human relaxin-1, SEQ ID NO: 3 (KWKDDVIKLCGRELVRAQIAICGMSTWS; listed as Homo sapiens)”, the “solubility of non-oxidised B-chain” value [1] is given as “highly insoluble or hydrophobic”.

With “Met(O)^25-RLX2B: Met(O)^25-human relaxin 2 B-chain, SEQ ID NO: 7; linear (compound 13) or cyclic (compound 14) form not specified” the “solubility relative to the corresponding non-oxidised B-chain” value [2] was “higher solubility”.

In the case of “RLX2B: Chain B of human relaxin-2, SEQ ID NO: 5”, the “solubility of non-oxidised B-chain” value [1] is given as “highly insoluble or hydrophobic”.

In the case of “Met(O)^24-RLX1B: Met(O)^24-human relaxin 1 B-chain, SEQ ID NO: 6; linear (compound 9) or cyclic (compound 10) form not specified (KWKDDVIKLCGRELVRAQIAICG[Met(O)]STWS; not fully specified; cysteine pairing not given here; listed as Homo sapiens)”, the “solubility relative to the corresponding non-oxidised B-chain” value [2] is reported as “higher solubility”.
